{"source": "patent US20150258194A1", "about": "“MODULATING TRANSENDOTHELIAL MIGRATION AND RECRUITMENT OF GRANULOCYTES BY MODULATING C-MET PATHWAY” (VIB VZW, priority 2012, published 2015)", "key": {"LLC cancer cells": {"test_system": "LLC cancer cells", "experiment": "Cytotoxicity assay: LLC cancer cell killing by neutrophils", "assay_type": "cell-based, mouse", "experimental": "Cytotoxicity assay: LLC-shMet were transduced with a luciferase-expressing lentivirus (EXhLUC-Lvl 14 from GeneCopoeia); 104 LLC were seeded in DMEM 10% FBS in 96-multiwell. After 4 h, 0.2×10^6 neutrophils purified from the blood of LLC-tumor bearing mice or sorted from LLC-tumors were co-cultured with the LLC in DMEM 2% FBS for 4 hours at 37° C., with or without 100 ng/ml HGF or 1 mM L-NMMA (SIGMA). After washing, adherent cells were lysate in 0.2% Tryton 1 mM DTT."}, "[1]": {"test_system": "Met expression in neutrophils", "experiment": "Q-PCR / Western blot of Met expression in mouse neutrophils", "assay_type": "cell-based", "conditions": "for upregulation of MET at RNA and protein levels: naïve mouse neutrophils", "experimental": "Western blot: 2×10^6 bone marrow neutrophils from WT mice were stimulated with TCM, CCM, 100 ng/ml of murine TNF-α (or mock medium 0% FBS or 10% FBS as control) for 20 hours at 37° C. For the co-culture with HUVEC, a monolayer of HUVEC was stimulated for 4 hours with 5 ng/ml IL-1 at 37° C., and washed before neutrophil seeding. After 20 hours of stimulation, neutrophils were collected using Cell Dissociation Buffer, Enzyme Free, PBS-Based (Gibco). Cells were washed in PBS, lysed in 15 μl of a protease inhibitor mixture and incubated for 15 minutes on ice. The stock solution was obtained by dissolving one tablet of Complete Mini protease inhibitor mixture (CI, Roche) in 5 ml of PBS with 2 mM diisopropyl fluorophosphate (DFP; Acros Organics, Morris Plains, N.J.). After addition of an equal amount of 2×SDS sample buffer supplemented with 4% 2-mercaptoethanol, the lysates were boiled for 15 minutes and kept at -80° C. until use. 30×10^6 neutrophils purified from healthy volunteer blood and stimulated with A549-CM, 100 ng/ml of human TNF-α, 50 ng/ml LPS (or mock medium 10% FBS as control) for 20 hours. Cells were incubated with DFP 2.7 mM for 15' at 4° C., collected and washed in PBS, DFP 2.7 mM, CI 1X, and lysed in hot […] buffer (25% SDS 10%, 25% Tris-HCl pH 6.8) at 96° C. for 10'. Cell lysates were sonicated, cleared and quantified. 6× loading buffer was added before loading on the gel. The following antibodies were used: mouse anti-mouse Met (clone 3D4; Invitrogen), mouse anti-mouse β-actin (Santa Cruz), rabbit anti-human Met (clone D1C2-XP; Cell Signaling), HRP-conjugated anti-beta-tubulin (Abcam). Signal was visualized by Enhanced Chemiluminescent Reagents (ECL, Invitrogen) or West Femto by Thermo Scientific according to the manufacturer's instructions. Quantitative RT-PCR: for mRNA analysis, 1×10^5 or 3×10^5 mouse or human neutrophils, respectively, were incubated in normoxic (21% oxygen) or hypoxic condition (1% oxygen) or stimulated with TCM (plus 50 μg/ml Enbrel or human IgG when indicated), CCM, A549-CM, 100 ng/ml of murine or human TNF-α, 50 ng/ml LPS, or mock medium in 96-multiwell for 4 hours at 37° C. 2×10^5 HUVEC were seeded in 24-multiwell coated with 0.1% gelatin and stimulated with 5 ng/ml IL-1 in DMEM 10% FBS for 4 hours at 37° C. Cells were washed in PBS, collected in RLT buffer (QIAGEN®) and kept at -80° C. RNA was extracted with an RNase Micro kit (QIAGEN®) according to manufacturer's instructions. Reverse transcription to cDNA was performed with the SuperScript III Reverse Transcriptase (Invitrogen) according to manufacturer's protocol. […]"}, "[2]": {"test_system": "MET expression in human neutrophils", "experiment": "Q-PCR / Western blot of MET expression in human neutrophils", "assay_type": "cell-based", "conditions": "Enbrel", "experimental": "Western blot: 2×10^6 bone marrow neutrophils from WT mice were stimulated with TCM, CCM, 100 ng/ml of murine TNF-α (or mock medium 0% FBS or 10% FBS as control) for 20 hours at 37° C. For the co-culture with HUVEC, a monolayer of HUVEC was stimulated for 4 hours with 5 ng/ml IL-1 at 37° C., and washed before neutrophil seeding. After 20 hours of stimulation, neutrophils were collected using Cell Dissociation Buffer, Enzyme Free, PBS-Based (Gibco). Cells were washed in PBS, lysed in 15 μl of a protease inhibitor mixture and incubated for 15 minutes on ice. The stock solution was obtained by dissolving one tablet of Complete Mini protease inhibitor mixture (CI, Roche) in 5 ml of PBS with 2 mM diisopropyl fluorophosphate (DFP; Acros Organics, Morris Plains, N.J.). After addition of an equal amount of 2×SDS sample buffer supplemented with 4% 2-mercaptoethanol, the lysates were boiled for 15 minutes and kept at -80° C. until use. […] Cell lysates were sonicated, cleared and quantified. […] Quantitative RT-PCR: for mRNA analysis, 1×10^5 or 3×10^5 mouse or human neutrophils, respectively, were incubated in normoxic (21% oxygen) or hypoxic condition (1% oxygen) or stimulated with TCM (plus 50 μg/ml Enbrel or human IgG when indicated), CCM, A549-CM, 100 ng/ml of murine or human TNF-α, 50 ng/ml LPS, or mock medium in 96-multiwell for 4 hours at 37° C. […]"}, "[3]": {"molecular_target": "MET (c-Met, HGF receptor) on mouse neutrophils (mouse) (UniProt P16056)", "experiment": "cell-based or functional assay"}, "neutrophils [4]": {"test_system": "neutrophils", "experiment": "Nitric oxide measurement by FACS (DAF-FM) in neutrophils", "assay_type": "cell-based, mouse", "conditions": "HGF 100 ng/ml", "experimental": "Nitric oxide measurement by FACS: neutrophils isolated from the blood of WT or KO LLC tumor bearing mice were co-cultured for 4 hours with LLC shMet, washed, and resuspended in PBSHepes 20 mM, incubated for 10′ with 5 μM DAF-FM diacetate (Molecular probes) in the absence or presence of HGF (100 ng/ml) at 37° C., washed and analyzed by FACS."}, "β2-integrin": {"test_system": "β2-integrin", "experiment": "Soluble ICAM-1 binding assay and co-immunoprecipitation of active β2-integrin", "assay_type": "cell-based"}, "neutrophils [5]": {"test_system": "neutrophils", "experiment": "Adhesion assay: neutrophil adhesion to HUVEC", "assay_type": "cell-based, mouse", "experimental": "Adhesion Assay: 4×10^4 HUVEC were seeded in M199 20% FBS in 96-multiwell previously coated with 0.1% gelatin. After 12 h, HUVEC were stimulated with 5 ng/ml IL-1 in DMEM 10% FBS at 37° C. After 4 hours the endothelial monolayer was thoroughly washed and 2.5×105 WBC were seeded on top, with or without murine HGF (50 ng/ml). After 15′ non-adherent cells were washed out whereas adherent cells were detached by using Cell Dissociation Buffer, Enzyme Free, PBS-Based (Gibco). Cells were stained with Ly6G-APC, washed and resuspended in PBS-BSA 0.1% with unlabeled counting beads (BD Bioscience) and quantified with FACS Canto II (BD Bioscience)."}, "Ly6G+ cells": {"test_system": "Ly6G+ cells", "experiment": "Air pouch assay: neutrophil exudation into subcutaneous air pouches", "assay_type": "in vivo", "conditions": "200 ng/mouse, 4 hours; for recruitment of Ly6G+ cells into air pouch: WT→WT mice", "experimental": "Air Pouch Assay: to create subcutaneous air pouches, bone marrow transplanted WT and KO mice were injected with 3 ml of sterile air by dorsal subcutaneous injection with a butterfly 23G needle on day 0 and on day 3. On day 6, 200 ng/mouse of CXCL1 or murine HGF in 0.5 ml PBS-Heparin or PBS-Heparin as control, were injected in the dorsal camera created with the previous injection. After 4 hours, inflammatory cells were harvested by washing the pouch with 8 ml of PBS. Cells were stained with Ly6G-APC, washed and resuspended in PBS-BSA 0.1% with unlabeled counting beads and quantified with FACS Canto II (BD Bioscience)."}, "neutrophils [6]": {"test_system": "neutrophils", "experiment": "Transmigration and migration assay of neutrophils", "assay_type": "cell-based, mouse", "experimental": "Transmigration and Migration Assay: For the transmigration assay, 2×10^5 HUVEC were seeded on 3 μm polycarbonate membrane (Transwell; Costar) previously coated with 0.1% gelatin in M199 20% FBS. After 12 h, HUVEC were stimulated for 4 hours at 37° C. in DMEM 10% FBS with 5 ng/ml IL-1 and then washed. 5×105 WBC were seeded on top of the endothelial monolayer, while mock medium (+/− decoy Met), TCM (+/− decoy Met) or 50 ng/ml murine HGF was added in the bottom. After 2 hours at 37° C., transmigrated cells were collected from the lower chambers and from the bottom part of the filter with cold PBS 0.5% EDTA. Cells were stained and Ly6G+ cells quantified as above. In the migration assays WBC were seeded directly on top of 3 μm polycarbonate porous membranes."}}, "data": [{"molecule": "CNC(=N)NCCC[C@H](N)C(=O)O", "note": "[L-NMMA, reference compound]", "values": [{"measurement": "HGF-induced cytotoxicity of neutrophils", "setting": "LLC cancer cells; HGF 100 ng/ml plus 1 mM L-NMMA", "value": "decreased HGF-induced cytotoxicity to the level of Met KO neutrophils"}, {"measurement": "cytotoxicity of intratumoral WT neutrophils against cancer cells", "setting": "LLC cancer cells; neutrophils sorted from LLC tumors, 1 mM L-NMMA", "value": "decreased the cytotoxicity of WT neutrophils to the levels of KO neutrophils"}]}, {"molecule": "Enbrel [reference compound]", "values": [{"measurement": "Met induction in mouse neutrophils stimulated with TCM", "setting": "[1]; TCM, 50 μg/ml Enbrel", "value": "abolishment of Met induction"}, {"measurement": "Met induction in neutrophils upon co-culture with activated ECs", "setting": "[1]; mouse neutrophils, HUVEC (IL-1), TNF-a blockade", "value": "prevented Met induction"}, {"measurement": "Met induction in human neutrophils stimulated with A549-CM", "setting": "[2]", "value": "abolishment of Met induction"}]}, {"molecule": "TNF-a", "values": [{"measurement": "upregulation of MET at RNA and protein levels", "setting": "[1]", "value": "able to upregulate MET"}]}, {"molecule": "Hepatocyte Growth Factor (HGF), murine (from UniProt Q08048 33-728) (ligand)", "values": [{"measurement": "adhesion of neutrophils to an activated endothelium (HUVEC pre-stimulated with IL-1), FACS count", "setting": "[3]", "value": 48, "unit": "%"}]}, {"molecule": "HGF: Hepatocyte Growth Factor, the ligand of the MET tyrosine kinase receptor (protein) QKKRRNTLHEFKKSAKTTLTKEDPLLKIKTKKVNSADECANRCIRNRGFTFTCKAFVFDKSRKRCYWYPFNSMSSGVKKGFGHEFDLYENKDYIRNCIIGKGGSYKGTVSITKSGIKCQPWNSMIPHEHSFLPSSYRGKDLQENYCRNPRGEEGGPWCFTSNPEVRYEVCDIPQCSEVECMTCNGESYRGPMDHTESGKTCQRWDQQTPHRHKFLPERYPDKGFDDNYCRNPDGKPRPWCYTLDPDTPWEYCAIKTCAHSAVNETDVPMETTECIQGQGEGYRGTSNTIWNGIPCQRWDSQYPHKHDITPENFKCKDLRENYCRNPDGAESPWCFTTDPNIRVGYCSQIPKCDVSSGQDCYRGNGKNYMGNLSKTRSGLTCSMWDKNMEDLHRHIFWEPDASKLNKNYCRNPDDDAHGPWCYTGNPLIPWDYCPISRCEGDTTPTIVNLDHPVISCAKTKQLRVVNGIPTQTTVGWMVSLKYRNKHICGGSLIKESWVLTARQCFPARNKDLKDYEAWLGIHDVHERGEEKRKQILNISQLVYGPEGSDLVLLKLARPAILDNFVSTIDLPSYGCTIPEKTTCSIYGWGYTGLINADGLLRVAHLYIMGNEKCSQHHQGKVTLNESELCAGAEKIGSGPCEGDYGGPLICEQHKMRMVLGVIVPGRGCAIPNRPGIFVRVAYYAKWIHKVILTYKL", "values": [{"measurement": "upregulation of MET at RNA and protein levels", "setting": "[1]", "value": "not"}, {"measurement": "NO release of KO neutrophils", "setting": "neutrophils [4]; Met KO circulating neutrophils with LLC", "value": "not"}, {"measurement": "NO release of WT neutrophils", "setting": "neutrophils [4]; WT circulating neutrophils with LLC", "value": "augmented"}, {"measurement": "percentage of granulocytes bound to ICAM-1", "setting": "β2-integrin; soluble ICAM-1 binding assay", "value": "increases the percentage of granulocytes bound to ICAM-1"}, {"measurement": "active β2-integrin (immunoprecipitation)", "setting": "β2-integrin; upon HGF stimulation", "value": "more active Iβ2-integrin"}, {"measurement": "cytotoxicity of KO neutrophils", "setting": "LLC cancer cells; Met KO circulating neutrophils with LLC, HGF 100 ng/ml", "value": "not"}, {"measurement": "cytotoxicity of WT neutrophils", "setting": "LLC cancer cells; WT circulating neutrophils with LLC, HGF 100 ng/ml", "value": "augmented"}, {"measurement": "adhesion of Met KO neutrophils to an activated endothelium", "setting": "neutrophils [5]; Met KO neutrophils, HUVEC (IL-1)", "value": "did not modify the behavior of KO cells"}, {"measurement": "increase of adhesion of WT neutrophils to an activated endothelium", "setting": "neutrophils [5]; WT neutrophils, HUVEC (IL-1), HGF 50 ng/ml", "value": 48, "unit": "%"}, {"measurement": "neutrophil adhesion to nonactivated ECs", "setting": "neutrophils [5]; nonactivated ECs", "value": "not affected"}, {"measurement": "recruitment of neutrophils into air pouch in KO→WT mice", "setting": "Ly6G+ cells", "value": "completely abolished"}, {"measurement": "recruitment of Ly6G+ cells into air pouch", "setting": "Ly6G+ cells", "value": "equally good in recruiting Ly6G+ cells"}, {"measurement": "transendothelial migration of Met KO neutrophils", "setting": "neutrophils [6]; Met KO neutrophils, inflamed-like endothelium", "value": "completely lost this response to HGF"}, {"measurement": "transendothelial migration (chemotaxis) of WT neutrophils", "setting": "neutrophils [6]; WT neutrophils, inflamed-like endothelium, HGF 50 ng/ml", "value": "promoted their chemotaxis through an inflamed-like endothelium"}, {"measurement": "migration of neutrophils through a naked porous membrane or a non-activated endothelium", "setting": "neutrophils [6]; no activated endothelium", "value": "did not influence the migration of neutrophils"}]}, {"molecule": "CXCL1: well-known neutrophil chemoattractant, positive control of neutrophil migration (protein, UniProt P12850 25-96, looked up) Growth-regulated alpha protein: APIANELRCQCLQTMAGIHLKNIQSLKVLPSGPHCTQTEVIATLKNGREACLDPEAPLVQKIVQKMLKGVPK", "values": [{"measurement": "recruitment of neutrophils into air pouch in KO→WT mice", "setting": "Ly6G+ cells", "value": "did not change"}, {"measurement": "recruitment of Ly6G+ cells into air pouch", "setting": "Ly6G+ cells", "value": "equally good in recruiting Ly6G+ cells"}]}]}
